Experimental data as given in US20240368574A1.

Columns and labels:
Experiment in all cases: cell-based or functional assay
[1] = biological target: FKBP.FRB.ΔC9 expressed from pBP1311-pSFG.FKBP.FRB.ΔC9.T2A-ΔCD19
[2] = biological target: ΔMyr.iMC (MyD88.CD40.Fv'.Fv) expressed from pBP0606-pSFG-k-ΔMyr.iMC.2A-ΔCD19 (human)
[3] = biological target: FRB.FKBP.ΔC9 expressed from pBP1310-pSFG.FRB.FKBP.ΔC9.T2A-ΔCD19
[4] = biological target: Her2-CAR-FRBl2 (1st generation Her2-CAR fused to two tandem FRBl domains)
[5] = biological target: CD19-CAR-FRBl2 (1st generation CD19-CAR fused to two tandem FRBl domains, co-expressed with iCaspase9 from iC9-CAR(19).FRBl2)

Chain of FKBP.FRB.ΔC9 expressed from pBP1311-pSFG.FKBP.FRB.ΔC9.T2A-ΔCD19 (P55211 other isoform, or with tags, fused parts or gaps, stated change not applied): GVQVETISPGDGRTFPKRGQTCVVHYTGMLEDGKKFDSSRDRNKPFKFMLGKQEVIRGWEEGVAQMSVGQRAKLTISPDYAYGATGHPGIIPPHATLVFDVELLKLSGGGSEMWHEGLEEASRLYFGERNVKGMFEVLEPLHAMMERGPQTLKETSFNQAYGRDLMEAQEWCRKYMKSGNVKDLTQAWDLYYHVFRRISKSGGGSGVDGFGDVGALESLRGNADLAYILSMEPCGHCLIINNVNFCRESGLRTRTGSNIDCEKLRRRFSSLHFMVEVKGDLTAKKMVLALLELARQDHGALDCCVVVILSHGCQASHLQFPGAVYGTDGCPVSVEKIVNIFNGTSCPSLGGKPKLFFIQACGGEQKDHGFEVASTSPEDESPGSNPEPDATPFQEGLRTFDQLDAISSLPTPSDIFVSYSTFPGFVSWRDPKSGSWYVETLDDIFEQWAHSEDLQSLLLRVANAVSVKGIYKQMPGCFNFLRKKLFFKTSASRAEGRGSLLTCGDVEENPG
Chain of ΔMyr.iMC (MyD88.CD40.Fv'.Fv) expressed from pBP0606-pSFG-k-ΔMyr.iMC.2A-ΔCD19 (human) (main, as listed by the source mutant): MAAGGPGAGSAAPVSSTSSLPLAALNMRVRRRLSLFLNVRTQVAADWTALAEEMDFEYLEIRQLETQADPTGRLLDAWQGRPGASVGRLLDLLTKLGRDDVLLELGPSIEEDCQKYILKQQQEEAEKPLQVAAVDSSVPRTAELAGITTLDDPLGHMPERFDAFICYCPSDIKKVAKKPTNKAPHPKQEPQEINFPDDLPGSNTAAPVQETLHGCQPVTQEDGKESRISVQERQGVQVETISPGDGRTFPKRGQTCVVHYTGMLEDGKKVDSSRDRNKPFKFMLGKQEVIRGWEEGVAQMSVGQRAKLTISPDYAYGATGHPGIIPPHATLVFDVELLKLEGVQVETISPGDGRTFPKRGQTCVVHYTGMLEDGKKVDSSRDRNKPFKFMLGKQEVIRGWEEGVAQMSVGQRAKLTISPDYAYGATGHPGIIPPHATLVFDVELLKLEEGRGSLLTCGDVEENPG
Chain of FRBL2.Caspase9 expressed from pBP0668-pSFG-FRBlx2.Caspase9.2A-Q.8stm.CD3zeta (chain, part): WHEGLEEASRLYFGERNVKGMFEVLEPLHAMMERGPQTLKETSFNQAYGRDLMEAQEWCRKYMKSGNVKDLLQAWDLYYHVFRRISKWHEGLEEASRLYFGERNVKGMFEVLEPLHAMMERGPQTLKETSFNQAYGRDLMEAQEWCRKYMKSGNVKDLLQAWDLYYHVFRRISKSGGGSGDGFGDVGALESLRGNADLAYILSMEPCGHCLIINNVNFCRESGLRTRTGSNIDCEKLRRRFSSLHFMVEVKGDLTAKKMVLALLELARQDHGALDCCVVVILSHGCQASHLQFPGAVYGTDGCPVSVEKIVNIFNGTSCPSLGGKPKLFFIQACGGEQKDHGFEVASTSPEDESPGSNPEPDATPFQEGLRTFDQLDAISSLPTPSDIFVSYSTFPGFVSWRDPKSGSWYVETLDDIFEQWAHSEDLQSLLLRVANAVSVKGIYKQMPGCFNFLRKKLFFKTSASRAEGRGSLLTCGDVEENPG
Chain of FRB.FKBP.ΔC9 expressed from pBP1310-pSFG.FRB.FKBP.ΔC9.T2A-ΔCD19 (P55211 other isoform, or with tags, fused parts or gaps, stated change not applied): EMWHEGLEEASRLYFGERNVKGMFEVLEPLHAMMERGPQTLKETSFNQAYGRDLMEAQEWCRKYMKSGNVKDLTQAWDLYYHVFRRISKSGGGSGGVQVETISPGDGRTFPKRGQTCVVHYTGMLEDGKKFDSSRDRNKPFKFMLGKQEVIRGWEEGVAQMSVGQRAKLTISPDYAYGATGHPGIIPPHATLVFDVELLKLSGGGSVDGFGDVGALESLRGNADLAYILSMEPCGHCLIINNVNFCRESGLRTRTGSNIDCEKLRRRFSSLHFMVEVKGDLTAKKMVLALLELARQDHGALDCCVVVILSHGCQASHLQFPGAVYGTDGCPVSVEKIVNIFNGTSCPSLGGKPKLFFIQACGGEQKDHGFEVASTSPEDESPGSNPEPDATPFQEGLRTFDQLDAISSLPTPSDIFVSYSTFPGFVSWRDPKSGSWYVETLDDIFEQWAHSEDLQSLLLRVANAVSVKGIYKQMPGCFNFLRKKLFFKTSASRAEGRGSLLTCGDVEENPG

Substance: FKBP.FRB.ΔC9 expressed from pBP1311-pSFG.FKBP.FRB.ΔC9.T2A-ΔCD19
- rapamycin concentration (small molecule) at which the construct was still highly active, caspase 3/7 and SRα-SEAP assays in transfected 293 cells [1]: 100 pM

Substance: FRBL2.Caspase9 expressed from pBP0668-pSFG-FRBlx2.Caspase9.2A-Q.8stm.CD3zeta
- rapamycin concentration at which doubly transduced (CD34+CD19+) primary T cells were eliminated, flow cytometry after 24 hours [2]: 2 nM

Substance: FRB.FKBP.ΔC9 expressed from pBP1310-pSFG.FRB.FKBP.ΔC9.T2A-ΔCD19
- rapamycin concentration (small molecule) at which the construct was still highly active, caspase 3/7 and SRα-SEAP assays in transfected 293 cells [3]: 100 pM

Substance: iCaspase-9 as used in Example 17
- SRα-SEAP reporter activity of transfected 293 cells after overnight rapamycin (small-molecule heterodimerizer) [4]: 50 % decrease
- SRα-SEAP reporter activity of transfected 293 cells after overnight rapamycin (small-molecule heterodimerizer) [5]: 50 % decrease
